# Experimental data: patent US20110124556 (published 2011)
# No end group written: not given here. βturn = not defined here
# B1: S378 (peptide)
# chain 1: GSLDESFYDWFERQLGKKKX
# chain 2: GSLDESFYDWFERQLGKKKX
# modifications: listing feature
# B2: S454 (peptide)
# chain 1: GSLDESFYDWFERQLGKKKX
# chain 2: EWLDQEWAWVQCEVYGRGCPSEEKX
# modifications: not fully specified; listing feature
# B3: S301 (peptide)
# chain 1: XDWLQRNANFYDWFVAEL
# chain 2: XDWLQRNANFYDWFVAEL
# modifications: listing feature
# B4: S438 (peptide)
# chain 1: ESFYDWFERQLGGGGK
# chain 2: DQEWAWVQCEVYGRGCPS
# B5: S437 (peptide)
# chain 1: ESFYDWFERQLGGGGK
# chain 2: LDQEWAWVQCEVYGRGCPS
# B6: S433 (peptide)
# chain 1: ESFYDWFERQLGGGGK
# chain 2: WLDQEWAWVQ
# B7: S442 (peptide)
# chain 1: ESFYDWFERQLGGGGK
# chain 2: AWVQCEVYGRGCPS
# B8: S229 (peptide)
# chain 1: SDGFYNAIELLSX
# chain 2: KHLCVLEELFWGASLFGYCSGKKX
# modifications: not fully specified; listing feature
# B9: S453 (peptide)
# chain: GSLDESFYDWFERQLGKKKXXKEWLDQEWAWVQCEVYGRGCPSEE
# modifications: not fully specified (residues 19, 20, 21); printed as GSLDESFYDWFERQLGKKK-Ald-17-Ald-KEWLDQEWAWVQCEVYGRGCPSEE; cysteine pairing not given here; also: two peptides (1-19 and 22-45) joined by linker 17 between the Ald group on K19 and an N-terminal Ald on the second peptide
# B10: S359 (peptide)
# chain 1: XDWLQRNANFYDWFVAEL
# chain 2: XDWLQRNANFYDWFVAEL
# modifications: listing feature
# B11: S379 (peptide)
# chain 1: GSLDESFYDWFERQLGKKKX
# chain 2: GSLDESFYDWFERQLGKKKX
# modifications: not fully specified; listing feature
# B12: S360 (peptide)
# chain 1: XDWLQRNANFYDWFVAEL
# chain 2: XDWLQRNANFYDWFVAEL
# modifications: listing feature
# B13: S443 (peptide)
# chain 1: ESFYDWFERQLGGGGK
# chain 2: WVQCEVYGRGCPS
# B14: S456 (peptide)
# chain 1: GSLDESFYDWFERQLGKK
# chain 2: XKEWLDQEWAWVQCEVYGRGCPSEE
# modifications: not fully specified; listing feature
# B15: S580 (peptide)
# chain 1: SLEEEWAQVECEVYGRGC-βturn
# chain 2: ESFYDWFERQLG
# modifications: not fully specified (bridges); printed as SLEEEWAQVECEVYGRGC-βturn-ESFYDWFERQLG; ends and bridges not checked; also: chain 1 continues via βturn into chain 2 (C-N fusion)
# Molecular target: human insulin receptor (HIR) (human, UniProt P06213)
# Assay: competition
row,Binder,Kd [nM]
1,B1,65
2,SLEEEWAQIEEVWGRGSESFYDWFERQLG [S571],1.8
3,WFYDWFWE [S315],68
4,B2,0.38
5,SIEEEWAQIKCDVWGRGCPPGLLDESFYHWFDRQLR [S520],0.02
6,SLEEEWAQVECEVYGRGCPSFYDWFERQL [S531],0.075
7,LEEEWAQVECEVYGRGCPSESFYDWFERQL [S536],0.083
8,SDGFYNAIELLS [S118],24000
9,HHHHHHKSLEEEWAQVECEVYGRGCPSGSLDESFYDWFERQLG [S524],0.011
10,B3,640
11,SLEEEWAQIQHELYGPAESESFYDWFERQL [S596],0.045
12,AHENFYDWFVRQVSKK [S113],590
13,FHENFYDWFVRAVSKK [S107],1000
14,SLEEEWAQIEEVWGRGPSESFYDWFERQLG [S569],0.15
15,B4,30
16,AFYDWFAKK [S167],> 2000
17,FHENFYDWFVRQVSKKXXSDGFYNAIELLS (not fully specified; listing feature) [S273],15
18,SIEEEWAQIKCDVWGRGCPSY [S593],2.2
19,LEEEWAQIQREVWHSPASESFYDWFERQL [S595],0.62
20,EGWDFYSYFSGLLASVT [S259],7700

row,Binder,Kd [nM]
1,B5,0.69
2,DWLQRNANFYDWFVAELG [S236],100
3,B6,110
4,SLEEEWAQIEAEVWGRGAPSESFYDWFERQLG [S574],0.0092
5,B7,160
6,FHENFADWFVRQVSKK [S220],> 2000
7,SLEEEWAQVECEVWGRGCPS [S548],4.1
8,SLEEEWAQIQCEVWGRCSESFYDWFERQL [S564],0.013
9,SLEEEWAQIECEVWGRGCPSY [S592],17
10,EHWNTVDPFYFTLFEWLRESG [S177],27000
11,B8,4.4
12,GSLDESFYDWFERQLGKKKS [S373],120
13,SLEHEWAQVECEVYGRGCPSGSLDESFYDWFERQLG [S537],0.044
14,SLELEWAQVECEVYGRGCPSGSLDESFYDWFERQLG [S539 (printed S519)],0.098
15,SLEEEWAQVECEVWGRGCPSGSLDESFYDWFERQLG [S541],0.0078
16,SLEEEWAQVECEVYGRGCPSGSLDESFYHWFERQLG [S542],0.027
17,B9,0.57
18,LDQEWAWVQCEAYGRGCPSESFYDWFERQL [S503],2.1
19,B10,700
20,FYDWFERQLG [S392],38

row,Binder,Kd [nM]
1,SLEEEWAQIESEVWGRSESFYDWFERQLG [S573],0.036
2,SLEEEWAWVQCEVYGRGCPSESFYDWFERQL [S534],0.01
3,SLEEEWAQIECEVYGRGCPSESFYDWFERQL (not fully specified (N-terminus); ends and bridges not checked) [S557],0.02
4,Ac-SLEEEWAQIECEVYGRGCPSESFYDWFERQL (ends and bridges not checked) [S597],0.0085
5,DPFYQGLWEWLRESGEE [S289],> 2000
6,B11,56
7,B12,990
8,B13,170
9,FHENFYDWFVAQVSKK [S108],750
10,NSFYEALRMLSSK [S121],31
11,SLEEEWAQIEEVWGRPSESFYDWFERQLG [S570],0.73
12,B14,2.4
13,SLEEEWAQVECEVYGRGCSGSLDESFYDWFERQLG [S549],0.013
14,Ac-SIEEEWAQIKCDVWGRGPSESFYDWFERQLG (ends and bridges not checked) [S568],0.0043
15,NFYDWFVAELG [S243],2000
16,B15,0.012
17,SLEEEWAQIECEVWGRGCPSGSLDESFYDWFERQL [S560],0.014
18,WLEQERAWIWCEIQGSGCRA [S263 (D8B12)],> 20000
19,RWPNFYGYFESLLTHFS [S257],14000
20,SIEEEWAQIKCDVWGRCSESFYDWFERQL [S562],0.018
